Laboratory results taken from patent US20180185504A1 (Regeneron, published 2018).

T1: human PRLR on cells (endogenous on T47D, T47D#11, MCF7); introduced in HEK293/hPRLR/STAT5-Luc, 293/hPRLR, … (human, UniProt P16471 25-622)
T1 sequence: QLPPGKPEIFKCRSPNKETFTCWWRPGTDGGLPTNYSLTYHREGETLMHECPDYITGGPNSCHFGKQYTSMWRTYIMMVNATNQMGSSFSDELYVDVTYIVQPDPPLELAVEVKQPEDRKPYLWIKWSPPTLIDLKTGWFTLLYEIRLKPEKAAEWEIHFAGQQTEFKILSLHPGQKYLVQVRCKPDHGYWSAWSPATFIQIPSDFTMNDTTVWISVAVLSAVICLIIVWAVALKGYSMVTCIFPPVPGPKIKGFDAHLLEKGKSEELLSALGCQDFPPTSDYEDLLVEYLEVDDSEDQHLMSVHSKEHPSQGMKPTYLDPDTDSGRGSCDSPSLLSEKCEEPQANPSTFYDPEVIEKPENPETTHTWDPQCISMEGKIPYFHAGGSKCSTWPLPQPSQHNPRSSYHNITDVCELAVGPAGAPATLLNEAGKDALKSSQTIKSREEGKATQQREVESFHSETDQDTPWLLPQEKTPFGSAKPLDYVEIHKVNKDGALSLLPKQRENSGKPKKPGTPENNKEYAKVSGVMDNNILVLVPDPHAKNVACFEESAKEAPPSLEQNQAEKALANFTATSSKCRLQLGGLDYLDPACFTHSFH

T2: mfPRLR.mmh (soluble monomeric macaca fascicularis PRLR) (macaca fascicularis)
T2 construct: soluble monomeric PRLR protein; also called macaca fascicularis (mf) PRLR.mmh; monkey PRLR
T2 chain: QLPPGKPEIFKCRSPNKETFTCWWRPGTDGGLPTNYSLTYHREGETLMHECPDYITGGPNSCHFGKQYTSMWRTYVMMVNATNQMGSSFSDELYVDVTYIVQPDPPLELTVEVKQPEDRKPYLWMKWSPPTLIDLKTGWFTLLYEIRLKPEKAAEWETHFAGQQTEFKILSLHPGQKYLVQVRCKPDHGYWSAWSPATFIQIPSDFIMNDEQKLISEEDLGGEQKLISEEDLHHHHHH

T3: hPRLR.mFc (soluble dimeric human PRLR) (human)
T3 construct: dimeric PRLR construct
T3 chain: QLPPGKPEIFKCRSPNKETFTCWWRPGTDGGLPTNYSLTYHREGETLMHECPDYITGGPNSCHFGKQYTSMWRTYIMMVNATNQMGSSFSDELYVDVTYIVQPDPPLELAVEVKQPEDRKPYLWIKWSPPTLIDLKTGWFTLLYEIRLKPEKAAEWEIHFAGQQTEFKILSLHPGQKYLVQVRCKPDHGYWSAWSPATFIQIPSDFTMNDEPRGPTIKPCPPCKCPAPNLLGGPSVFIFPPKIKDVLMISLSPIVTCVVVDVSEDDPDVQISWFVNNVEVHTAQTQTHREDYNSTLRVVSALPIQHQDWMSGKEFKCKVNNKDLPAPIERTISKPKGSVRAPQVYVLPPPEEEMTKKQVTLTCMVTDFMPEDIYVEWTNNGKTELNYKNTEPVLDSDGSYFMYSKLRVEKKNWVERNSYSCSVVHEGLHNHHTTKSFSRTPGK

T4: hPRLR.mmh (soluble monomeric human PRLR) (human)
T4 construct: soluble monomeric PRLR protein
T4 chain: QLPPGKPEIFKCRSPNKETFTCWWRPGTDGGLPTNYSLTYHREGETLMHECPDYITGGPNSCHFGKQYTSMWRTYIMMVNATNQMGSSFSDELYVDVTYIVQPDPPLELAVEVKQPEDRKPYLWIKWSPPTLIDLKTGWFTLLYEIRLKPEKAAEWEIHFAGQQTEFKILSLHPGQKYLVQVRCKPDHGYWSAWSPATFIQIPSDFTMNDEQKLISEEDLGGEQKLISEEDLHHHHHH


Key:
[1] = molecular target: T1, human PRLR on cells (endogenous on …); experiment: cell-based or functional assay
[2] = molecular target: T2, mfPRLR.mmh (soluble monomeric macaca …); experiment: SPR (Biacore), antibody capture, 37 C
Experimental: (§1) Measurements were conducted on a T200 Biacore instrument. Kinetic association (kₐ) and dissociation (kd) rate constants were determined by processing and fitting the data to a 1:1 binding model using Scrubber 2.0 curve fitting software.

[3] = molecular target: T3, hPRLR.mFc (soluble dimeric human PRLR); experiment: SPR (Biacore), antibody capture, 37 C
Experimental: as §1

[4] = molecular target: T4, hPRLR.mmh (soluble monomeric human PRLR); experiment: SPR (Biacore), antibody capture, 37 C
Experimental: as §1

| Binder | IC50 of Blocking 5 nM PRL [M] (STAT5-Luc reporter, HEK293/hPRLR/STAT5-Luc cells) [1] | Percent Blocking at 100 nM Antibody (STAT5-Luc reporter) [1] | Kd [2] | T 1/2 [2] | koff [2] | kon [2] | Kd [3] | T 1/2 [3] | koff [3] | kon [3] | Kd [4] | T 1/2 [4] | koff [4] | kon [4] |
| --- | --- | --- | --- | --- | --- | --- | --- | --- | --- | --- | --- | --- | --- | --- |
| H1H6781P (antibody, human IgG1, V domains shown, human IgG1 Fc (H1H)) VH: EVQLVESGGDLVQPGESLRLSCTASGFTFNSYEMNWVRQAPGKGLEWVSYISSSGGTKYYVDSVKGRFTISRDNAKKSLYLQMNSLRADDTALYYCARLNGVDVFDIWGQGTMVTVSS VL: DIQMTQSPSSLSASVGDRVTITCRASQDIFNYLAWFQQKPGKVPELLISAASTLQSGVPSRFSGSGSGTYFTLTISSLQPEDIATYYCQRYNSAPLTFGGGTKVEIK | 2.7e-11 M | 100% | 1.08 nM | 43 min | 0.000267 s⁻¹ | 247000 M⁻¹ s⁻¹ | 0.226 nM | 117 min | 9.84e-05 s⁻¹ | 436000 M⁻¹ s⁻¹ | 0.91 nM | 37 min | 0.000309 s⁻¹ | 339000 M⁻¹ s⁻¹ |
| H1H6783P (antibody, human IgG1, V domains shown, human IgG1 Fc (H1H)) VH: QVQLQQSGPGLVKPSQTLSLTCAISGDSVSSNTFAWNWIRQSPSRGLEWLGRTYYRSKWYIDYAESVKSRITITPDTSKNQFSLQLNSVTPEDTALYYCAGGYTYAPRGAFDIWGQGTMVTVSS VL: not shown | – | 59% | 4.74 nM | 9 min | 0.0013 s⁻¹ | 273000 M⁻¹ s⁻¹ | 0.282 nM | 83 min | 0.000138 s⁻¹ | 491000 M⁻¹ s⁻¹ | 3.91 nM | 7 min | 0.00161 s⁻¹ | 411000 M⁻¹ s⁻¹ |
| H1H6774P (antibody, human IgG1, V domains shown, human IgG1 Fc (H1H)) VH: EVQLVESGGGLAQPGGSLRLSCVASGFTFSTYWMSWVRQAPGKGLDWVGNIKQDGSEQNYVDSVRGRFTISRDNAKNSLFLQMNSLRAEDTGVYYCATLLTKGDYWGQGTLVTVSS VL: DIQMTQSPSSLSASVGDSVTITCRASQDISNYLDWFQQKPGKAPKSLIYAASILQGGVPSRFSGSGYGTDFTLTISSLQPEDFATYYCRQYKTYPFTFGPGTKVDIK | – | 0% | 5 nM | 3 min | 0.00361 s⁻¹ | 723000 M⁻¹ s⁻¹ | 0.138 nM | 60 min | 0.000194 s⁻¹ | 1.41e+06 M⁻¹ s⁻¹ | 2.95 nM | 4 min | 0.00317 s⁻¹ | 1.07e+06 M⁻¹ s⁻¹ |
| H1H6958N2 (antibody, human IgG1, V domains shown, also called H2M6958N2) VH: QVQLVESGGGVVQPGRSLRLSCGASGFTFRNYGMQWVRQGPGKGLEWVTLISFDGNDKYYADSVKGRFTISRDNSKNTLFLQMNSLRTEDTAVYYCARGGDFDYWGQGTLVTVSS VL: DIQMTQSPSSLSASVGDRVTITCRASQDIRKDLGWYQQKPGKAPKRLIYAASSLHSGVPSRFSGSGSGTEFTLTISSLQPEDFATYYCLQHNSYPMYTFGQGTKLEIK | 1.98e-10 M | 100% | 4.08 nM | 8.6 min | 0.00134 s⁻¹ | 328000 M⁻¹ s⁻¹ | 0.167 nM | 83.3 min | 0.000139 s⁻¹ | 829000 M⁻¹ s⁻¹ | 3.16 nM | 8.8 min | 0.00131 s⁻¹ | 413000 M⁻¹ s⁻¹ |

Now from value to binder:

| IC50 of Blocking 5 nM PRL [M] (STAT5-Luc reporter, HEK293/hPRLR/STAT5-Luc cells) [1] | Percent Blocking at 100 nM Antibody (STAT5-Luc reporter) [1] | Kd [2] | T 1/2 [2] | koff [2] | kon [2] | Kd [3] | T 1/2 [3] | koff [3] | kon [3] | Kd [4] | T 1/2 [4] | koff [4] | kon [4] | Binder |
| --- | --- | --- | --- | --- | --- | --- | --- | --- | --- | --- | --- | --- | --- | --- |
| 5.7e-10 M | 100% | 9.37 nM | 4 min | 0.00286 s⁻¹ | 305000 M⁻¹ s⁻¹ | 0.352 nM | 66 min | 0.000176 s⁻¹ | 499000 M⁻¹ s⁻¹ | 5.27 nM | 5 min | 0.00229 s⁻¹ | 435000 M⁻¹ s⁻¹ | H1H6792P (antibody, human IgG1, V domains shown, human IgG1 Fc (H1H)) VH: EVQLVESGGGLVQPGRSLRLSCAASGFTLDDHAVHWVRQAPGKGLEWVSGISWNSVYIDYADSVKGRFTIFRDNAKNSLYLQMNSLRAEDTAFYYCARDIEGARDYWGQGTLVTVSS VL: DIQMTQSPSSLSASVGDRVTITCRASQGIRNDLGWYQQKPGKAPKRLIYAASSLQSGVPSRFSGSGYGTEFTLTISSLQPEDFAPYYCLQHNSYPLTFGGGTKVEIK |
| 1.05e-10 M | 100% | 2.71 nM | 4.5 min | 0.00256 s⁻¹ | 947000 M⁻¹ s⁻¹ | 0.116 nM | 68 min | 0.00017 s⁻¹ | 1.47e+06 M⁻¹ s⁻¹ | 1.11 nM | 9.4 min | 0.00122 s⁻¹ | 1.1e+06 M⁻¹ s⁻¹ | H1H6953N (antibody, human IgG1, V domains shown, also called H1M6953N) VH: EVQLLESGGGLVQPGGTLRLSCAASGFTFSAYAMSWVRQAPGKGLEWVSSINVRAGDTYYADSVKGRFTISRDNSKNTLFLLMNSLRAEDTAAYYCAKARYSSNWGFDFWGQGTLVTVSS VL: DIVMTQSPDSLTVSLGARTTINCQSSQTILHSSNNHNYLAWYQQKPGLPPKLLIYWSSTRESGVPDRFSGSGSGTDFTLTISSLQAEDVAIYYCQQYSNTPYTFGQGTKLEIN |
| 6e-10 M | 100% | 0.448 nM | 32 min | 0.000359 s⁻¹ | 802000 M⁻¹ s⁻¹ | 0.09 nM | 105 min | 0.00011 s⁻¹ | 1.22e+06 M⁻¹ s⁻¹ | 0.31 nM | 34 min | 0.000336 s⁻¹ | 1.08e+06 M⁻¹ s⁻¹ | H1H6807P (antibody, V domains shown, human IgG1 Fc (H1H)) VH: QVQLVESGGGVVQPGRSLRLSCAASGFTFSDYNMHWVRQAPGKGLEWVAVIWYDGSNKHYADSVKGRFTISRDNSKNTLYLQMNSLRAEDTAVYYCARDGFTIFGMVLDYWGQGTLVTVSS VL: not shown |
| 7.68e-10 M | 100% | 4.54 nM | 7.1 min | 0.00162 s⁻¹ | 356000 M⁻¹ s⁻¹ | 0.107 nM | 119 min | 9.73e-05 s⁻¹ | 907000 M⁻¹ s⁻¹ | 2.2 nM | 12.4 min | 0.000933 s⁻¹ | 424000 M⁻¹ s⁻¹ | H1H6967N (antibody, human IgG1, V domains shown, also called H2M6967N) VH: EVQLVESGGDLVHPGRSLRLSCAASGFPFDEYAMHWVRQVPGKGLEWVSGISWSNNNIGYADSVKGRFTISRDNAKNSLYLQMNSLRPEDTAFYYCAKSGIFDSWGQGTLVTVSS VL: EIVMTQSPATLSVSPGERATLSCRASQSVSRDLAWYQQKPGQAPRLLIHGASTRATGIPARFSGSGSGAEFTLIISSLQSEDFAVYYCQQYNNWPLTFGGGTKVEIK |
| – | 0% | 6.16 nM | 2 min | 0.00599 s⁻¹ | 973000 M⁻¹ s⁻¹ | 0.0402 nM | 149 min | 7.77e-05 s⁻¹ | 1.94e+06 M⁻¹ s⁻¹ | 3.81 nM | 2 min | 0.0052 s⁻¹ | 1.36e+06 M⁻¹ s⁻¹ | H1H6795P (antibody, human IgG1, V domains shown, human IgG1 Fc (H1H)) VH: QVQLVQSGAEVKKPGASVKVSCKASGYTFGTSGITWVRQAPGQGLEWMGWSSAYNGKTDYAQKFQDRVTMTTDTSTTTGYMEMRSLTSDDTAVYYCTTVVRRPFDFWGQGTLVTVSS VL: DIQMTQSPSSLSASVGDRVTITCRASQDINNFLAWFQQKPGKAPKSLIYAASSLQSGVPSKFSGGGSGTDFALTISSLQPEDFATYYCQQYSSYPITFGQGTRLEIK |
